Measured values: publication PMC4751364, “Mitotic Activation of a Novel Histone Deacetylase 3-Linker Histone H1.3 Protein Complex by Protein Kinase CK2*” (The Journal of Biological Chemistry, 2015)

Molecular target: T1, Human recombinant HDAC3 (human, UniProt O15379 1-428)
T1 construct: human recombinant HDAC3 (Biomol); No catalogue number, host or tag is printed for the bought protein; also called recombinant human HDAC3; source: bought: Biomol
Test: pull-down; recombinant HDAC3 (8 ug) incubated with recombinant H1.3 (4 ug), overnight at 4 C; pulled down with anti-HDAC3 antibody and protein A/G-agarose; SDS-PAGE, Coomassie staining
Conditions: both partners purified

T1 sequence (O15379 whole entry): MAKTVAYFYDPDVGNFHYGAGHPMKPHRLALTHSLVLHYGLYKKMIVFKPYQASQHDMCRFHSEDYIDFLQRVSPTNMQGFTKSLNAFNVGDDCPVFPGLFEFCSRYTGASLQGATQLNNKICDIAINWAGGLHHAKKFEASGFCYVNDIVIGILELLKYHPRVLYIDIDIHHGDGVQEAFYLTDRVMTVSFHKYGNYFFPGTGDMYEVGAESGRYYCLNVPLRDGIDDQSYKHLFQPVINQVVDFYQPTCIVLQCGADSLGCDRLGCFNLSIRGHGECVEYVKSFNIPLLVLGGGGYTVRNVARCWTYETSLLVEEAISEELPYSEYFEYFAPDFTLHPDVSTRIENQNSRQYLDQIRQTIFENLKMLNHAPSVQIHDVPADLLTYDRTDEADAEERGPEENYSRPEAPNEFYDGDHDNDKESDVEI

binding result: binds
B1: Human recombinant H1.3 (natural protein, UniProt P16402 1-221, looked up)
chain: MSETAPLAPTIPAPAEKTPVKKKAKKAGATAGKRKASGPPVSELITKAVAASKERSGVSLAALKKALAAAGYDVEKNNSRIKLGLKSLVSKGTLVQTKGTGASGSFKLNKKAASGEGKPKAKKAGAAKPRKPAGAAKKPKKVAGAATPKKSIKKTPKKVKKPATAAGTKKVAKSAKKVKTPQPKKAAKSPAKAKAPKPKAAKPKSGKPKVTKAKKAAPKKK
notes: human recombinant histone H1.3 (Alexis Biochemicals); No catalogue number, host or tag is printed for the bought protein; also called recombinant human histone H1.3; source: bought: Alexis Biochemicals
